In patent US11479601B2, “Antibodies specific to Sonic Hedgehog and method of use thereof” (The Regents of the University of California, priority 2016, dated 2022):

Legend:
[1] = biological target: T1, Shh in A549 cells (Homo sapiens, UniProt Q15465); assay: Flow cytometry of purified antibodies on A549 cells (vector control or pCMV-Shh); assay type: binding
T1 construct: 1) 293T (endogenous Shh), 2) 293T (bearing exogenously transfected Shh) and 3) A549 (Shh-expressing); endogenous in cells; host or cells: 293T and A549 (endogenous); also 293T and A549 transiently transfected with pCMV-Shh (Origene)
Procedure: A549, 293T or 293T (+pCMV Shh) cells were labeled with Sonic Hedgehog (Shh) antibody (Abcam 53281, 1:100) or therapeutic test antibodies (1:100) for 1 hour at RT post serum blocking. Following two PBS washes, a FITC-conjugated secondary antibody (Abcam 97029, 1:100) or an Alexa-Fluor 647 (Invitrogen, 1:1000) was used to label cells. Samples were screened by flow cytometry using an Accuri™ C6 machine (BD Biosciences). For fluorescence activated cell sorting, samples were sorted using an S3e™ Cell Sorter (Bio-Rad) and the Shh+ population was collected. For all experiments, cells processed without primary antibody served as a negative control. Experiments were performed in duplicates or triplicates.
For the purpose of selecting the best C-term Shh antibodies from over 50 hybridoma clones, two sets of screening assays were designed. First, the same Shh C-term peptides (AA 247-264 and 448-462, KLH-free version) used to mount an immune response in mice was employed in an ELISA-based assay with supernatants from antibody-producing hybridoma clonal cells. […] To confirm specific recognition, A549 (+vector control) cells and A549 cells transfected with exogenous Shh were labeled with 2G4 and 2D9 and assessed via flow cytometry. […] Finally, the Kd values of both antibodies with recombinant full-length Shh were calculated and nanomolar binding affinities were observed (FIG. 48C).

[2] = biological target: T2, full-length Shh polypeptide (Homo sapiens, UniProt Q15465); assay: Flow cytometry: binding of C-terminal Shh antibodies to full-length Shh expressed in transfected cells; conditions: antibody at 1:10 (Commercial at 1:50)
T2 construct: Expression of full-length Shh polypeptide in transfected cells; expressed in transfected cells; pCMV-Shh plasmid (Origene)
Procedure: FACS (1:40). The secondary antibody was a donkey anti-mouse FITC-linked antibody (ab97029, 1:100, Abcam). For cell analysis after treatment assays (chemotherapy or GDC0449), a dead cell marker (SytoxRed, Invitrogen) was also used. For human fresh samples, an anti-CD45 APC-linked antibody (ab28106, 1:100, Abcam), and a dead cells marker (SytoxRed, Invitrogen) were added. For staining of stable transfected cell lines, mouse anti-HA antibody (Abcam, 1:100) and rabbit anti-FLAG antibody (Cell Signaling; 1:400) were used. Corresponding secondary antibodies were donkey anti-mouse AlexaFluor647 (Invitrogen, 1:1000) and donkey anti-rabbit AlexFluor594 (Invitrogen, 1:1000) antibodies. Flow cytometry analyses were performed on AccuriC6 flow cytometer (BD Biosciences), and FACS on FACSAria II (BD Biosciences). Flow analyses were based at least on 200,000 cells, and each test was made at least in triplicate. For all experiments, a negative control with cells processed without primary antibody was used. […]
Expression of full-length Shh polypeptide in transfected cells increased the percentage of cells labeled with the Shh antibodies produced by two of the subclones (2D9 and 2G4) identified after the screening, compared to the percentage of untransfected cells labeled by the same antibodies, as measured by flow cytometry (Table 3).

[3] = test system: other lung and pancreatic cancer cell lines; assay: CellTiter-Glo cell viability assay, other cancer cell lines; assay type: cell-based; conditions: 96 hours
Procedure: Logarithmically growing cells were plated in antibiotic-free medium supplemented with 2% fetal bovine serum at a density of 5,000 cells per well in clear-bottom 96-well plates. The next day cells were treated (triplicates) with increasing doses of in-house therapeutic antibodies (reconstituted in PBS) or PBS controls for 96 hours and subsequently assessed for cell viability by measuring ATP content with CellTiter-Glo Luminescent Cell Viability Assay (Promega). Signal intensity was measured on a Glomax™ 96 Microplate Luminometer (Promega) and percent cell survival was calculated based on the reading of PBS control cells set as 100%.

B1: 2G4: purified mouse monoclonal C-terminal Shh antibody from hybridoma sub-clone 2G4 of clone 1C11, IgG1 kappa (antibody, V domains shown)
VH: EVKLVESGGGLVKPGGSLKLSCAASGFTFSSYTMSWVRQTPAKRLEWVATISSGGGNTYYPDSVKGRFTISRDNARNTLYLQMSSLRSEDTAMYYCARDYRSLFAYWGQGTLVTVSA
VL: QIVLTQSPAIMSASPGEKVTITCSASSSVSYMHWFQQKPGTSPKLWIYSTSNLASGVPARFSGSGSGTSYSLTISRMEAEDAATYYCQQRSSYPFTFGSGTKLEIK
[1]; A549 (+vector control)
  endogenous Shh recognized (flow cytometry): 0.5%
[1]; A549 cells transfected with exogenous Shh
  exogenous Shh recognized (flow cytometry): 6%
[2]; +SHh Full-Length transfection
  percentage of cells labeled with the Shh antibody (flow cytometry): 2.24%
[2]; No transfection
  percentage of cells labeled with the Shh antibody (flow cytometry): 0.17%
[3]
  growth of other lung and pancreatic cancer cell lines: inhibited the growth
